A short description of this data set: yeast display, Sf9 membrane polyspecificity reagent, FACS + sequencing; frameworks hold sequencing errors. In a few lines:
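In a synthetic yeast display library (Saccharomyces cerevisiae BJ5465), nanobody expression was induced with galactose for 36–48 hours. FACS gates were set low and high (top ~1%) using anti-HA fluorescence for expression and streptavidin fluorescence for binding of the Sf9 membrane reagent. Each polyreactivity label is drawn from the gate of origin.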
With “QVQLVESGGGLVQGGGSLRLSCAASGRIFGHYVMGSYRQAPGKERELVAAISYSGGSTYYADSVKGRFTISRDNAKNTVYLQMNSLKPEDTAVFYCAARVTQDSPYGAYYYWGQGTQVTVSS”, the “polyreactivity (PSR sort gate)” value is on record as “high polyreactivity”. To “QVQIVESGGGLVQAGGSLRLSCAASGSTFGSNAMGWYRQAPGKERELGAAISWTGGSTYYADSVKGRFTISRDNAKNTVYLQLNSLKPEDTAVYYCNKRIAESDTTVTYDYWGQGTQVNVSS” belongs “low polyreactivity”; to “QVQLVESGGGLVQAGGRLRLSCAASGFIFSYYAMGWYRQAPGKERELVAAINYSGGRTYYADSVKGRFTISRDNAKNTVYLQMNSLKPEDTAVYYCNAVTFGRRAFDYWGQGTQVTVSS”, “high polyreactivity”; to “QDQLVESGGSLVQAGGSLRLSCASSGSIFKGNVMGCYRQAPGKERELVAAITWSAGSTYYADSVKGRFTISRDNAKNTVYLQMNRLKPEDTAVYYCNTDRYHGVDFDYWGQGTQVSVSS”, “high polyreactivity”. Under “QVQRVESGGGLVQAGGSLRLSCAASGSTFVGYAMGWYRQAPGKERELVAAINDSGGSTYYADSVKGRFTISRDNAKNTVYLQMNSLKPEDTAVYYCAADSSGTSWYTFDYWGQRTQVTVSS” stands “low polyreactivity”; under “QVQLVESGGGLVQAGGSLRLSSAASGRTFSYNTMGWYSQAPGQERELVARITWGGGSTNYAVSVKGRFTISRDNAKNTVYLQMNSLKPEDTAVYYCAAGPSVPYGPQKVDYWGQGTLVTVSS”, “low polyreactivity”; under “QVQLVESGGGLVQAGGSLRLSCAASGSTFSFYAMGWYRQAPGKERELVAAISWSDGSTYYADSVKGRFTISRDNAKNTVYLQMNSLKPEDTAVYYCAARRLAYIFYTVGYDYWGQGTQVTVSS”, “low polyreactivity”. To “QVQLVESGGGLVQAGGSLRLSCAASGRTFKYNAMGWYRQAPGKERELVAAISNRGGSTYYADSVKGRFTISRDNAKNTVYLQMNSLKPEDTAVYYCAVRAVYRWSSGYGYWGQGTQVTVSS” belongs “high polyreactivity”. For “QVQLVESGGGLVQAGGSLRLSCAASGLIFPLYAMGWYRHAPGKERELVAAITSSGGSTYYADSVKGRFTISRDNAKNTVYLQMNSLKPEDTAVYYCAADYSVYWLDYGYWGQGTQVTVSS”, the “polyreactivity (PSR sort gate)” value is recorded as “low polyreactivity”.

For the sequence “QVQLVESGGGLVQAGGSLRLSCAASGSTFSAYAMGGYRQAPGKERELVAVITSGASTYYADSVKGRFTISRDNAKNTVYLQMNSLKPEDTAVYYCAAYGYSYRGWRMDYWGQGTQVTVSS”, the “polyreactivity (PSR sort gate)” value is listed as “high polyreactivity”. To “QVQLVESGGGLVQAGGSHRLSCAASGSTFSWNTMGWYRQAPGKERELVASITRSDGSTYADSEKGRFTISRDNAKNTVYLQMNSLKPEDTAVYYCNADPYLYLYLNYDYWGQGTQVTVSS” belongs “low polyreactivity”; to “QVQLVESGGGLVQAGGSLRLSCAASGFTFRGYAMGWYRQAPGKERELVADITSGGSTYYADSVKGRFTISRDNAKNTVYLQMNSLKPEDTAVYYFATDILYWSDYAYEGYYTLDYYWGQGTQVTVSS”, “high polyreactivity”. For “QVQLVESAGGLVQAGGSLRLSCAASGSTFWIYTMGWYRQAPGKERELVAAITWSGGRTYYADSVKGRFTISRDNAKNTVYLQMNSLKPEDTAVYYCNADVYSYRPSTIQRYVLFDYWGQGTQVTVSS”, the “polyreactivity (PSR sort gate)” value is on record as “low polyreactivity”. Take “QVQLVESGGGLVQAGGSLRLSCAASGSIIPRNVMGWYRQAPGNERELVAAISRSGGSTSYADSVKGRFTISRDNAKNTVYLQMNSLKPEDTAVYYCKAPWQRYSAPWGQGYNYWGQGTQVTVSS”: the “polyreactivity (PSR sort gate)” value is “high polyreactivity”.

In the case of “QVQLVESGGGLVQAGGSLRLSCAASGRTFLYNVMGWYRQAPGKERELVAAITSGGRTYYADSVKGRFTISRDNAKNTVYLQMNSLKPEVTAVYYCAADPYFYYYGYDYWGQGTQVTVSS”, the “polyreactivity (PSR sort gate)” value is given as “low polyreactivity”. Turning to “QVQLVESGGGLVQPGGSLRLSCAASGRIFKRNAMGCYRQAPGKERELVAAITWRGGSTYYADSVKGRFTISRDNAKNTVYLQMKSMKPEDTAVYYCNVGYGGSSDGGYDYWGHGTQVTVSS”, the “polyreactivity (PSR sort gate)” value is recorded as “high polyreactivity”.

With “QVQLVESGGGLVQAGGSLRLSCAASGRTFGHYAMGWYRQAPGKERELVAAITSRGGSTNYADSVKGRFTISRDNAKKTDYLQMNSLKPEDTAVYYCAARLSPEEGYWGQGTQVTVSS”, the “polyreactivity (PSR sort gate)” value is on record as “high polyreactivity”.

Consider “QVQLVESGGGLVQAGGSLRLSCAASGRTFVYNAMGWYRQAPGKEREMVSGITNGGSTNYADSVKGRFTISRDNAKNTVYLQMNSLKPEDTAVYYCAADSRVYPYYFGDFGYWGQGTQVTVSS”, for which the “polyreactivity (PSR sort gate)” value is on record as “low polyreactivity”. In the case of “QVQLVESGGGLVQAGGSLSLSCAASGRNFTIYAMGWYIQAPGKEREMVAGITRSGGRTYYADSVKGRFTISRDNAKNTVYLQMNSLKPEDTAVYYCNRVFYSGYRGQGHSYESWGQGTQVTVSS”, the “polyreactivity (PSR sort gate)” value is “high polyreactivity”.

As to “QVHLVESGGGLVQAGGSLRLSCDASGLTLWTYAMGWSRQAAGKEMELVARIRSGGSTYYADSVKGRFTFSRDNAKNTVYLQMNSLKPEDTAVYSCNAKRYGRWAAAGRVGYDYWGQGTQVTVSS”, the “polyreactivity (PSR sort gate)” value is listed as “high polyreactivity”. To “QVQLVESGGGLVQAGGSLRLSCAASGFIFLYYAMGWYRQAPGKERELVAAISRSGGRTYYADSVKGRFTISRDNAKNTVYLQMNSLKPEDTAVYYCAADRLGSISGYDYWGQGTQVTVSS” belongs “high polyreactivity”.

(Values after the nanobody polyreactivity screen of Harvey et al. (2022).)
